In article PMC11291249, “Investigating the biosynthesis and roles of the auxin phenylacetic acid during Pseudomonas syringae-Arabidopsis thaliana pathogenesis” (Frontiers in Plant Science, 2024):

Legend:
O=CCc1ccccc1 = experiment: purified protein; details: 5 mM NAD+, 100 mM Tris-HCl pH 8.0, 100 mM KCl, 25 °C
[1] = test system: NC(=O)c1ccc[n+]([C@@H]2O[C@H](COP(=O)(O)OP(=O)(O)OC[C@H]3O[C@@H](n4cnc5c(N)ncnc54)[C@H](O)[C@@H]3O)[C@@H](O)[C@H]2O)c1; experiment: purified protein; details: 1 mM PAAld, 100 mM Tris-HCl pH 8.0, 100 mM KCl, 25 °C, varied: cofactor

AldA (Pseudomonas syringae pv. tomato str. DC3000)
Km (O=CCc1ccccc1): 645 ± 113 µM
kcat (O=CCc1ccccc1): 18.7 ± 1.3 s⁻¹
kcat/Km (O=CCc1ccccc1): 29000 M⁻¹ s⁻¹
Km [1]: 11.2 ± 1.2 µM
kcat [1]: 1.4 ± 0.0183 s⁻¹
kcat/Km [1]: 125000 M⁻¹ s⁻¹
